Assay results: patent US20140072983A1

What was measured:
[1] = target: biotin-CCR4 peptide conjugate (human); assay: ECL (MSD) bridging assay, biotin-CCR4 peptide on a streptavidin plate, His-CD16a detection; 5% pooled human serum
[2] = target: biotin-CCR4 peptide conjugate (human); assay: ECL (MSD) bridging assay, biotin-CCR4 peptide on a streptavidin plate, His-CD16a detection; 0% PHS (assay buffer)
[3] = target: biotin-CCR4 peptide conjugate (human); assay: ECL (MSD) bridging assay, biotin-CCR4 peptide on a streptavidin plate, His-CD16a detection; 20% pooled human serum

Measured: EC50 (read off the curve)

Chain of biotin-CCR4 peptide conjugate (human) (peptide, as listed by the source): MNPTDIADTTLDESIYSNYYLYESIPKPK

KW-0761 (antibody)
0.4 µg/mL: all assays above
